# Measurements reported in publication PMC12204359, “Mechanistic Design of Cell-Penetrating Disruptors for a Phospho-Dependent Interaction” (Research Square, 2025).
# Positions of bridges follow the written chain, without caps; N, C: chain ends. Non-standard residues stand in square brackets, D forms with d. Primed or numbered codes have the meaning given here. No end group written: not given here. FAM″ = 5(6)-carboxyfluorescein label; pS = N[C@@H](COP(=O)(O)O)C(=O)O; FAM = 5(6)-carboxyfluorescein; S5 = C=CCCC[C@](C)(N)C(=O)O
# T1: clathrin heavy chain minimal ankle region (CHC^ankle, aa 358–574) (human, UniProt Q00610 358-574)
# T1 construct: modified pGEX vector with a TEV-cleavable GST tag; also called CHC ankle region protein; WT CHC
# T1 sequence (looked up): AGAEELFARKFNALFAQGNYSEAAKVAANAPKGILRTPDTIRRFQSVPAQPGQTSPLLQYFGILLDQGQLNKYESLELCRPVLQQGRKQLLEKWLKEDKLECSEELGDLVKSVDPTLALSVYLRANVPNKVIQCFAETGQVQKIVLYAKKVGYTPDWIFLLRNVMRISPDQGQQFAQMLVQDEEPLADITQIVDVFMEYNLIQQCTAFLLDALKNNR
# T2: biotinylated Avi-tagged ankle region of clathrin (aa 358–574) (human, UniProt Q00610 358-574, biotin)
# T2 construct: held on a streptavidin chip (SPR) or detected with an anti-biotin antibody (peptide arrays)
# T2 sequence (looked up): T1 sequence (looked up)
# B1: FAM-TACC3 CID K562A peptide, unphosphorylated (peptide, UniProt Q9Y6A5 549-570, looked up)
# peptide: {FAM}-FKESALRKQSLYLAFDPLLRDS
# notes: human TACC3 CID, aa 549-570, K562A, no phosphate; also called K562A^TACC3; source: synthetic peptide, bought: PPR, Alta Bioscience or Biomatik Corporation
# B2: FAM-pTACC3 CID R555A peptide (peptide, UniProt Q9Y6A5 549-570, looked up)
# peptide: {FAM}-FKESALAKQ[pS]LYLKFDPLLRDS
# notes: human TACC3 CID, aa 549-570, pS558, R555A; also called R555A^pTACC3; source: synthetic peptide, bought: PPR, Alta Bioscience or Biomatik Corporation
# B3: FAM-TACC3 CID S558E peptide (peptide, UniProt Q9Y6A5 549-570, looked up)
# peptide: {FAM}-FKESALRKQELYLKFDPLLRDS
# notes: human TACC3 CID, aa 549-570, S558E; also called phosphomimetic glutamic acid variant; S558E TACC3^CID; source: synthetic peptide, bought: PPR, Alta Bioscience or Biomatik Corporation
# B4: FAM-pTACC3 CID K562A peptide (peptide, UniProt Q9Y6A5 549-570, looked up)
# peptide: {FAM}-FKESALRKQ[pS]LYLAFDPLLRDS
# notes: human TACC3 CID, aa 549-570, pS558, K562A; also called K562A^pTACC3; source: synthetic peptide, bought: PPR, Alta Bioscience or Biomatik Corporation
# B5: FAM-pTACC3 CID R555A K562A peptide (peptide, UniProt Q9Y6A5 549-570, looked up)
# peptide: {FAM}-FKESALAKQ[pS]LYLAFDPLLRDS
# notes: human TACC3 CID, aa 549-570, pS558, R555A and K562A; also called R555A K562A^pTACC3; source: synthetic peptide, bought: PPR, Alta Bioscience or Biomatik Corporation
# B6: array peptide TACC3 550–568 S558D Y560L K562I (peptide, UniProt Q9Y6A5 550-568, looked up)
# peptide: KESALRKQDLLLIFDPLLR
# modifications: also: 8-amino-3,6-dioxaoctanoic acid spacer to cellulose membrane, end not given here
# notes: human TACC3 aa 550-568 with S558D, Y560L, K562I; source: synthesised on cellulose membrane (MultiPep 2)
# B7: array peptide TACC3 550–568 S558D Y560L K562I L567F (peptide, UniProt Q9Y6A5 550-568, looked up)
# peptide: KESALRKQDLLLIFDPLFR
# modifications: also: 8-amino-3,6-dioxaoctanoic acid spacer to cellulose membrane, end not given here
# notes: human TACC3 aa 550-568 with S558D, Y560L, K562I, L567F; source: synthesised on cellulose membrane (MultiPep 2)
# B8: array peptide TACC3 550–568 S558D Y560W K562L (peptide, UniProt Q9Y6A5 550-568, looked up)
# peptide: KESALRKQDLWLLFDPLLR
# modifications: also: 8-amino-3,6-dioxaoctanoic acid spacer to cellulose membrane, end not given here
# notes: human TACC3 aa 550-568 with S558D, Y560W, K562L; source: synthesised on cellulose membrane (MultiPep 2)
# B9: array peptide TACC3 550–568 S558D Y560L K562L (peptide, UniProt Q9Y6A5 550-568, looked up)
# peptide: KESALRKQDLLLLFDPLLR
# modifications: also: 8-amino-3,6-dioxaoctanoic acid spacer to cellulose membrane, end not given here
# notes: human TACC3 aa 550-568 with S558D, Y560L, K562L; source: synthesised on cellulose membrane (MultiPep 2)
# B10: array peptide TACC3 550–568 S558D Y560L K562E L567F (peptide, UniProt Q9Y6A5 550-568, looked up)
# peptide: KESALRKQDLLLEFDPLFR
# modifications: also: 8-amino-3,6-dioxaoctanoic acid spacer to cellulose membrane, end not given here
# notes: human TACC3 aa 550-568 with S558D, Y560L, K562E, L567F; source: synthesised on cellulose membrane (MultiPep 2)
# B11: array peptide TACC3 550–568 S558D Y560W K562L L567F (peptide, UniProt Q9Y6A5 550-568, looked up)
# peptide: KESALRKQDLWLLFDPLFR
# modifications: also: 8-amino-3,6-dioxaoctanoic acid spacer to cellulose membrane, end not given here
# notes: human TACC3 aa 550-568 with S558D, Y560W, K562L, L567F; source: synthesised on cellulose membrane (MultiPep 2)
# B12: array peptide TACC3 550–568 S558D Y560L K562L L567F (peptide, UniProt Q9Y6A5 550-568, looked up)
# peptide: KESALRKQDLLLLFDPLFR
# modifications: also: 8-amino-3,6-dioxaoctanoic acid spacer to cellulose membrane, end not given here
# notes: human TACC3 aa 550-568 with S558D, Y560L, K562L, L567F; source: synthesised on cellulose membrane (MultiPep 2)
# B13: array peptide TACC3 550–568 S558D Y560L K562Q L567F (peptide, UniProt Q9Y6A5 550-568, looked up)
# peptide: KESALRKQDLLLQFDPLFR
# modifications: also: 8-amino-3,6-dioxaoctanoic acid spacer to cellulose membrane, end not given here
# notes: human TACC3 aa 550-568 with S558D, Y560L, K562Q, L567F; source: synthesised on cellulose membrane (MultiPep 2)
# B14: array peptide TACC3 550–568 S558D Y560L K562Q (peptide, UniProt Q9Y6A5 550-568, looked up)
# peptide: KESALRKQDLLLQFDPLLR
# modifications: also: 8-amino-3,6-dioxaoctanoic acid spacer to cellulose membrane, end not given here
# notes: human TACC3 aa 550-568 with S558D, Y560L, K562Q; source: synthesised on cellulose membrane (MultiPep 2)
# B15: array peptide TACC3 550–568 S558D Y560I K562L L567F (peptide, UniProt Q9Y6A5 550-568, looked up)
# peptide: KESALRKQDLILLFDPLFR
# modifications: also: 8-amino-3,6-dioxaoctanoic acid spacer to cellulose membrane, end not given here
# notes: human TACC3 aa 550-568 with S558D, Y560I, K562L, L567F; source: synthesised on cellulose membrane (MultiPep 2)
# B16: array peptide TACC3 550–568 S558D Y560L K562E (peptide, UniProt Q9Y6A5 550-568, looked up)
# peptide: KESALRKQDLLLEFDPLLR
# modifications: also: 8-amino-3,6-dioxaoctanoic acid spacer to cellulose membrane, end not given here
# notes: human TACC3 aa 550-568 with S558D, Y560L, K562E; source: synthesised on cellulose membrane (MultiPep 2)
# B17: array peptide TACC3 550–568 S558D Y560I K562L (peptide, UniProt Q9Y6A5 550-568, looked up)
# peptide: KESALRKQDLILLFDPLLR
# modifications: also: 8-amino-3,6-dioxaoctanoic acid spacer to cellulose membrane, end not given here
# notes: human TACC3 aa 550-568 with S558D, Y560I, K562L; source: synthesised on cellulose membrane (MultiPep 2)
# B18: GB1-pTACC3 (domain or fragment, human, UniProt Q9Y6A5 545-573, looked up)
# chain: GTSSFKESALRKQ[pS]LYLKFDPLLRDSPGR
# modifications: also: 15N/13C labelled
# notes: human TACC3 aa 545-573 (the results say aa 546-573), pS558, fused to the small protein GB1; also called phosphorylated GB1-TACC3 CID; source: E. coli BL21 (DE3) RIL, purified; phosphorylated in situ with Aurora-A (122–403) and TPX2 (1–43); not shown: His-NusA, N-terminal, cleaved
# Target: T1, clathrin heavy chain minimal ankle …
# Experiment: fluorescence polarisation; direct binding, FAM-labelled TACC3 peptides and CHC protein; 20 mM HEPES pH 7.5, 150 mM NaCl, 5 mM DTT, 0.05% Tween-20; triplicate; one-site specific binding model
# Conditions: both partners purified
row,Kd [µM],Binder
1,146,B1
2,52,B2
3,314,B3
4,23,B4
5,26,B5
6,~750,{FAM″}-KESALRK[S5]ELL[S5]EADPAFRDS-NH2 (staple 8-12) [negative control SP TACC3 (F563A & L566A)]

# Target: T2, biotinylated Avi-tagged ankle region of …
# Experiment: peptide or protein array; peptides synthesised on cellulose membrane; 1 μM biotinylated clathrin 358–574 in 20 mM HEPES pH 7.5, 150 mM NaCl, 5 mM DTT, 0.05% Tween-20, 1 h room temperature; anti-biotin HRP
# Conditions: both partners purified
row,binding result,Binder
1,binds,B6
2,binds,B7
3,binds,B8
4,binds,B9
5,binds,B10
6,binds,B11
7,binds,B12
8,binds,B13
9,binds,B14
10,binds,B15
11,binds,B16
12,binds,B17

# Target: T1, clathrin heavy chain minimal ankle …
# Experiment: NMR titration; CHC titrated into ~140 μM 15N-labelled GB1-TACC3 or GB1-pTACC3 to a 1:5 CHC:TACC3 molar ratio; loss of 1H–15N HSQC peak intensity
# Conditions: both partners purified
row,binding result,Binder
1,binds,B18
